Reference: the DeepSol protein solubility set

test: soluble on expression in E. coli; label from the status in PepcDB or PDB records

| Sequence | soluble on expression in E. coli |
| --- | --- |
| GPGSMYFTSAKDVVRLCGGGLAPEVTFAIDDYPATDSIGYNSSAVAGGGGTNVDGASMSNVTTAIQRSLRRASRTAGQPTLRPTRTEQVCGPAVLGAGEALGLAPFKYVCYTVSTTSVVAPASGSASAASKGAKGDGGATYVEFVDAFRIRTSDVHAAVIDIAAQQRAERLQHSPNLYVPWCAAAPGEVVPRGAARTVADFIVAARHRTLYSDYAATELLVRQSWLLQDAAAHTIRALMPHMVPRTYMPGEVMACPHTPGSLRQLCFLRRGRLNVFVVPKSGITPVLLMKGESPDVLVTSRFSRDGCGCWCLRETPTAQPAEVVESGASFGELSVLFHEPRHCILRADTVCDVWCLPRQNFAALMQRDAALRDGLLRKAAVLRVEWMGEQRFTRALAQQLRAGSELLKPLPDIAIRLIQERLEPVIYTPGSLVASTSTRCTEMTFIMRGTVSTIWKVLLHTAQGTCWARDA | not soluble |
| GPGSRGIDGRQVVRREIKWANMAADWNKTNTKMHAKLKERCRKGIPSRFRGVAWQLLMGSFHQLNSEENNGVYVALRDKKLADKETDVIISRDLARTFPTHVLFQDPGGVGQTFLRNILHAYAGCDPEVGYVQGMGFLVAALSTQMAEGGVLLGPA | not soluble |
| GPHMTTIEDEDTKVRKQEIIKVTEQLIEAISNGDFESYTKMCDPGMTAFEPEALGNLVEGLDFHRFYFENLWSRNSKPVHTTILNPHIHLMGDESACIAYIRITQYLDAGGIPRTAQSEETRVWHRRDGKWQIVHFHRSGAPSVLPH | soluble |
| GPLGSEVMGPVEAAPEYRVIVDANNLTVEIENELNIIHKFIRDKYSKRFPELESLVPNALDYIRTVKELGNSLDKCKNNENLQQILTNATIMVVSVTASTTQGQQLSEEELERLEEACDMALELNASKHRIYEYVESRMSFIAPNLSIIIGASTAAKIMGVAGGLTNLSKMPACNIMLLGAQRKTLSGFSSTSVLPHTGYIYHSDIVQSLPPDLRRKAARLVAAKCTLAARVDSFHESTEGKVGYELKDEIERKFDKWQE | soluble |
| GPLGSLVNVIRRESGNPDLLELLMDLNCYTLEVTEGYLKKVNVTEVNGDNVLGPIHVITTVVSSLVRNGLLIQSSKFISKVLLTVESIVMSLPKDETMLGGIFWLSNLSRLPAFAANQKTLYEANGGDEKDKLTLIYLNDLENETLKVFDKIYSTWLVKFMKHASAHIEIFDMVLNEKLFKNSGDEKFAKLFTFLNEFDAVLCKFQVVDSMHTKIFNDTLKYLNVMLFNDLITKCPALNWKYGYEVDRNIERLVSWFEPRIEDVRPNLIQIIQAVKILQLKISNLNEFKLLFDFWYALNPAQIQAILLKYKPANKGEAGVPNEILNYLANVIKRENLSLPGKMEIMLSAQFDSAKNHLRYDTSAITQNSNTEGLATVSKIIKLDRK | soluble |
| GPLGSMASATLGSSSSSASPAVAELCQNTPETFLEASKLLLTYADNILRNPSDEKYRSIRIGNTAFSTRLLPVRGAVECLFEMGFEEGETHLIFPKKASVEQLQKIRDLIAIERSSRLDGSSKK | soluble |
| GPLGSMEPPLPVGAQPLATVEGMEMKGPLREPCALTLAQRNGQYELIIQLHEKEQHVQDIIPINSHFRCVQEAEETLLIDIASNSGCKIRVQGDWIRERRFEIPDEEHCLKFLSAVLAAQKAQS | soluble |
| GPLGSMPEVRFQQQLEQLNSMGFINREANLQALIATGGDINAAIERLLGSQLS | soluble |
| GPLGSMQLKPMEINPEMLNKVLSRLGVAGQWRFVDVLGLEEESLGSVPAPACALLLLFPLTAQHENFRKKQIEELKGQEVSPKVYFMKQTIGNSCGTMGLIHAVANNQDKLGFEDGSVLKQFLSETEKMSPEDRAKCFEKNEAIQAAHDAVAQEGQCRVDDKVNFHFILFNNVDGHLYELDGRMPFPVNHGASSEDTLLKDAAKVCREFTEREQGEVRFSAVALCKAA | soluble |
| GPLGSPEFPGMSKVFIATANAGKAHDADIFSVSACNSFTVSCSGDGYLKVWDNKLLDNENPKDKSYSHFVHKSGLHHVDVLQAIERDAFELCLVATTSFSGDLLFYRITREDETKKVIFEKLDLLDSDMKKHSFWALKWGASNDRLLSHRLVATDVKGTTYIWKFHPFADESNSLTLNWSPTLELQGTVESPMTPSQFATSVDISERGLIATGFNNGTVQISELSTLRPLYNFESQHSMINNSNSIRSVKFSPQGSLLAIAHDSNSFGCITLYETEFGERIGSLSVPTHSSQASLGEFAHSSWVMSLSFNDSGETLCSAGWDGKLRFWDVKTKERITTLNMHCDDIEIEEDILAVDEHGDSLAEPGVFDVKFLKKGWRSGMGADLNESLCCVCLDRSIRWFREAGGK | soluble |
| GPLGSPQMAQGTLIRVTPEQPTHAVCVLGTLTQLDICSSAPEDCTSFSINASPGVVVDIAHSPPAKKKSTGSSTWPLDPGVEVTLTMKAASGSTGDQKVQISYYGPKTPPVKALLYLTAVEISLCADITRTGKVKPTRAVKDQRTWTWGPCGQGAILLVNCDRDNLESSAMDCEDDEVLDSEDLQDMSLMTLSTKTPKDFFTNHTLVLHVARSEMDKVRVFQATRGKLSSKCSVVLGPKWPSHYLMVPGGKHNMDFYVEALAFPDTDFPGLITLTISLLDTSNLELPEAVVFQDSVVFRVAPWIMTPNTQPPQEVYACSIFENEDFLKSVTTLAMKAKCKLTICPEEENMDDQWMQDEMEIGYIQAPHKTLPVVFDSPRNRGLKEFPIKRVMGPDFGYVTRGPQTGGISGLDSFGNLEVSPPVTVRGKEYPLGRILFGDSCYPSNDSRQMHQALQDFLSAQQVQAPVKLYSDWLSVGHVDEFLSFVPAPDRKGFRLLLASPRSCYKLFQEQQNEGHGEALLFEGIKKKKQQKIKNILSNKTLREHNSFVERCIDWNRELLKRELGLAESDIIDIPQLFKLKEFSKAEAFFPNMVNMLVLGKHLGIPKPFGPVINGRCCLEEKVCSLLEPLGLQCTFINDFFTYHIRHGEVHAGTNVRRKPFSFKWWNMVP | soluble |
| GPLGSSYSMEQVEGITSEYIVKNADMFAVAVSLVSGKILYISNQVASIFHCKKDAFSDAKFVEFLAPHDVSVFHSYTTPYKLPPWSVCSGLDSFTQECMEEKSFFCRVSVGKHHENEIRYQPFRMTPYLVKVQEQQGAESQLCCLLLAERVHSGYEAPRIPPEKRIFTTTHTPNCLFQAVDERAVPLLGYLPQDLIETPVLVQLHPSDRPLMLAIHKKILQAGGQPFDYSPIRFRTRNGEYITLDTSWSSFINPWSRKISFIIGRHKVRVGPLNEDVFAAPPCPEEKTPHPSVQELTEQIHRLLMQPVP | soluble |
| GPMPQLTLDKTDIKILQVLQENGRLTNVELSERVALSPSPCLRRLKQLEDAGIVRQYAALLSPESVNLGLQAFIRVSIRKAKDAREDFAASVRKWPEVLSCFALTGETDYLLQAFFTDMNAFSHFVLDTLLSHHGVQDAQSSFVLKEIKHTTSLPLNHLLKE | soluble |
| GPNSGTLALLLDEGSKQLPQAIIIGVKKGGTRALLEFLRVHPDVRAVGAEPHFFDRSYDKGLAWYRDLMPRTLDGQITMEKTPSYFVTREAPARISAMSKDTKLIVVVRDPVTRAISDYTQTLSKRPDIPTFESLTFKNRTAGLIDTSWSAIQIGIYAKHLEHWLRHFPIRQMLFVSGERLISDPAGELGRVQDFLGLKRIITDKHFYFNKTKGFPCLKKAEGSSRPHCLGKTKGRTHPEIDREVVRRLREFYRPFNLKFYQMTGHDFGWDG | soluble |
| GPPQMSATNEDLKTNFHSLHNQMRQMPMSHFREALDAPDYSGMRQSGFFAMSQGFQLESHGGDVFMHAHRENPQCKGDFAGDKFHISVQREQVPQAFQALSGLLFSVDSPIDKWKVTDMERVDQQSRVAVGAQFTLYVKPDQENSQYSASSLHNTRQFIECLESRLSESGLMPGQYPESDVHPENWKYVSYRNELRSGRDGGEMQSQALREEPFYRLMAE | soluble |
| GPSPVGQQYHVEKFSGLRIRKPRVSSSEMERKMNGRKLIRLAQLQNKIATEKLEEEDWVTFGVIVKKITPQSSNNGKTFSIWRLNDLKDLDKYISLFLFGDVHKEHWKTDQGTVIGLLNANPMKPKEGTDEVCLSVDNPQKVLLMGDAVDLGTCKARKKNGDPCTQMVNLNDCEYCQYHVQAQYKKVSSKRADLQSSYSG | soluble |
| GQHTLKQFAADSALTTTTPLCSEVPLFDINALGDWTYLGTSLPAKFAKLFASILHCIDDEYFLITPVEKVRVQVEDAPLLIVDFERAQPHSLLNVSTSIGTLHHNVDIKQMKLTDDSVYLPLERGLWGKLGRACYYNFVNEFNLSDLNEQ | soluble |
